# Assay results published in the RNAGym collection of RNA variant scans (doi:10.1093/molbev/msab373).
# B1: Azoarcus group I ribozyme (parent)
# chain: GUGCCUUGCGCCGGGAAACCACGCAAGGGAUGGUGUCAAAUUCGGCGAAACCUAAGCGCCCGCCCGGGCGUAUGGCAACGCCGAGCCAAGCUUCGGCGCCUGCGCCGAUGAAGGUGUAGAGACUAGACGGCACCCACCUAAGGCAAACGCUAUGGUGAAGGCAUAGUCCAGGGAGUGGCGAAAGUCACACAAACCGG
# Variants of: B1
# Assay: reverse-splicing fitness (ratio to wild type); higher = more active; in vitro selection; Mg2+ level not given
# Outline: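 An in vitro group I ribozyme library with randomized positions was T7-transcribed and gel-purified. In triplicate, 10 pmol RNA in EPPS pH 7.5 was reacted with 50 pmoles of a 30-nt RNA substrate for 1 h at 37 °C across several added MgCl2 levels (1–48 mM), then stopped with EDTA. Products were reverse transcribed from a substrate-complementary primer, PCR-amplified and sequenced (HiSeq 4000). Fitness is a variant's read proportion after selection over that before, normalised to wild type.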
row,Variant,reverse-splicing fitness
1,A145U C150U C169A,0.106
2,A145U C150U C169G,0.215
3,A145U C150U C169U,0.312
4,A145G C150U U176G,0.308
5,A145G C150U U176A,0.844
6,A145G C150U U176C,0.821
7,C150A C169A U176A,0.0214
8,C150A C169A U176C,0.0227
9,C150A C169A U176G,0.00665
10,A145U C150A C169A,0.0212
11,A145U C150A C169U,0.0521
12,A145U C150A C169G,0.0369
13,C150U U176G,0.306
14,C150U U176C,0.869
15,C150U U176A,0.814
16,A145U C150G U176C,0.351
17,A145U C150G U176G,0.108
18,A145U C150G U176A,0.326
19,C150G,0.42
20,C150A,0.484
21,C150U,0.878
22,A145U C150G,0.512
23,A145U C150U,0.943
24,A145U C150A,0.465
25,A145G C150U C169U U176G,0.00803

row,Variant,reverse-splicing fitness
1,A145G C150U C169U U176A,0.113
2,A145G C150U C169U U176C,0.149
3,A145U C150A C169U U176G,0.00699
4,A145U C150A C169U U176C,0.0345
5,A145U C150A C169U U176A,0.031
6,A145U C150G C169G U176G,0.00509
7,A145U C150G C169G U176C,0.00868
8,A145U C150G C169G U176A,0.0118
9,C150G C169U,0.0492
10,C150G C169G,0.0309
11,C150G C169A,0.02
12,A145U C169G U176G,0.00761
13,A145U C169G U176A,0.0717
14,A145U C169G U176C,0.133
15,A145U C169A U176C,0.0523
16,A145U C169A U176G,0.00543
17,A145U C169A U176A,0.0255
18,C150U C169A,0.0973
19,C150U C169U,0.247
20,C150U C169G,0.172
21,A145G U176C,0.91
22,A145G U176G,0.325
23,A145G U176A,0.863
24,A145G C169G,0.302
25,A145G C169A,0.172

row,Variant,reverse-splicing fitness
1,A145G C169U,0.369
2,A145G C169A U176C,0.0662
3,A145G C169A U176A,0.0412
4,A145G C169A U176G,0.00541
5,C150G C169A U176A,0.0121
6,C150G C169A U176G,0.00618
7,C150G C169A U176C,0.0144
8,A145U C169U U176G,0.013
9,A145U C169U U176C,0.149
10,A145U C169U U176A,0.109
11,C150U C169A U176A,0.0259
12,C150U C169A U176C,0.0431
13,C150U C169A U176G,0.00623
14,C150G C169G U176G,0.0051
15,C150G C169G U176C,0.0077
16,C150G C169G U176A,0.00867
17,A145G C169G U176A,0.0818
18,A145G C169G U176G,0.00802
19,A145G C169G U176C,0.14
20,A145U,0.946
21,A145U C150A U176A,0.4
22,A145U C150A U176C,0.363
23,A145U C150A U176G,0.177
24,A145U C150G C169A,0.0224
25,A145U C150G C169U,0.0635
